Tests used:
peptide 1 = biological target: T1, peptide 1 (human); assay: peptide ELISA
T1 construct: also called peptide 1 of mature GDF8
T1 peptide: DFGLDCDEHSTESRCCRY
Protocol: (§1) Eleven peptides were generated from mature GDF8 to test and localize antibody binding (See FIG. 6). Peptide ELISA was done on glutaraldehyde coated ELISA plates and on uncoated ELISA plates (NUNC-Immuno™ plate MaxiSorp™ surface, Nalge Nunc International, Cat. No. 439454). Glutaraldehyde coated plates were prepared by mixing 250 μl glutaraldehyde (50% w/v) with 50 ml deionized water and adding 200 μl of the solution into each well. Plates were incubated for at least 1 hour at room temperature. The glutaraldehyde was shaken out of the plate and smashed upside down on paper towels to remove all the liquid prior to use.
(§2) ELISA plates were coated with peptide at 1.0 μg/well/50 μl (in Sodium bicarbonate buffer, pH 9.6) for at least 4 hours, and then blocked with 200 μl blocker (1%BSA, 1%Ethanolamine pH 7.4) for minimum 4 hours. Plates were washed with PBST three times with 200 μl/well. 50 μl antibody (1 μg/ml in PBST, Phosphate-buffered saline (PBS) with 0.05% Tween-20) sample was added to the wells for 1 hour. Plates were then washed with PBST three times. 50 μl anti-human IgG-horseradish peroxidase(HRP) (Pierce, Cat# 31420) diluted in PBST is added for another hour. The wells were washed again with TBST three times, and then with deionized water twice. 50 μl ABTS (MOSS) was added for 5-20 minutes, and the signal was detected at 405 nm in a colormetric plate reader.

peptide 5 = biological target: T2, peptide 5 (human); assay: peptide ELISA
T2 construct: also called peptide 5 of mature GDF8
T2 peptide: CCTPTKMSPINMLYFNGK
Protocol: as §1, §2

[1] = biological target: T3, mature GDF8 from mouse serum (mouse, UniProt O08689 268-376); assay: immunoprecipitation from mouse serum, western blot
T3 construct: mature; also called mouse serum mature GDF8
T3 sequence (looked up): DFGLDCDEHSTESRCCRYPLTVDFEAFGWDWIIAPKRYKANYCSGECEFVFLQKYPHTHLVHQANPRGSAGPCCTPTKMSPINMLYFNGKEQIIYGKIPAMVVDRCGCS
Protocol: An immunoprecipitation study was conducted to test the binding of myostatin antibodies to mature GDF8 from mouse serum. […] mouse serum (Rockland, Cat ## D208-00) was incubated with 20 μg myostatin antibodies for 16 hours at 4° C. Protein A Dynalbeads were added and incubated for 90 minutes at 4° C. The immunoprecipitate was collected using MPC-E magnetic concentrator (Dynal, Norway), and washed four times with PBS. […] Western blotting was performed using Odyssey Infrared imaging system (Li-Cor). Mature GDF8 was detected using biotinylated goat anti-myostatin antibody (R&D systems, Cat# BAF788). […] It is known that mature GDF8 in the serum binds to many inhibitory proteins such as propeptide, FLRG, and GASAP1 (Hill et al. (2002) The myostatin propeptide and the follistatin-related gene are inhibitory binding proteins of myostatin in normal serum. J. Biol. Chem. 277: 40735-40741. Hill et al. (2003) Regulation of myostatin in vivo by growth and differentiation factor-associated serum protein-1: a novel protein with protease inhibitor and follistatin domains. Mol. Endocrin. 17(6): 1144-1154). […] Such non-competitive neutralizing antibodies would be advantageous in vivo.

mature GDF8 = biological target: T4, mature GDF8 (human, UniProt O14793 267-375); assay: immunoprecipitation from 293T conditioned medium, western blot
T4 construct: also called myostatin; mstn
T4 sequence: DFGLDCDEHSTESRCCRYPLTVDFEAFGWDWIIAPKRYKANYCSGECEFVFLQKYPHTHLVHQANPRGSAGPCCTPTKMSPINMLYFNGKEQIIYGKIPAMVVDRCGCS
Protocol: An immunoprecipitation study was conducted to test the binding of myostatin antibodies to mature GDF8 and mature GDF8/propeptide complex. 293T cells were transfected with GDF-8 expression construct. Conditioned media was harvested 7 days after transfection, which contained mature GDF8 and latent complex. 100 μl conditioned media was incubated with 10 μg myostatin antibodies for 16 hours at 4° C. Protein A Dynabeads (Dynal, Norway) were added and incubated for 90 minutes at 4° C. The immunoprecipitate was collected using MPC-E magnetic concentrator (Dynal, Norway), and washed four times with PBS. […] Western blotting was performed using Odyssey infrared imaging system (Li-Cor). Mature GDF8 and unprocessed GDF8 were detected using goat anti-myostatin antibody (R&D systems, Cat# AF788). Rabbit anti-propeptide polyclonal antibody (made in-house) was used to detect both propeptide and unprocessed GDF8. […] No other antibodies immunoprecipitated mature GDF8, propeptide, or unprocessed GDF8. Lane 4 is the 1/10 medium loading control, and lane 7 is immunoprecipitation control with medium only.

Measured: binding result

B1: 2-112-1 (antibody, V domains shown)
VH: EVQLLESGGGLIQPGGSLRLSCAASGFTFSSFAMSWVRQAPGKGLEWVSTISGSGGYTFYADSVKGRFTISRDNSKNTLYLQMNSLRAEDTAVYYCAKDGRYNWNYGAFDIWGQGTMVTVSS
VL: EIVMTQSPATLSVSPGERATLSCRASQSVSSNLAWYQQKPGQAPRLLIYGASTRATGFPARFSGSGSGTEFTLTISSLQSEDFAIYYCQQYNNWPLTFGGGTKVEIKR
notes: Full-length deduced chains
binds: all assays above

B2: 2-43-1 (antibody, V domains shown)
VH: EVQLLESGGGLVQPGGSLRLSCAASGFTFSSYAMSWVRQAPGKGLEWVSAISGSGGSTFYADSVTGRFTISRDNSKNTLFLQLNSLRAEDTAVYHCAKDGRFNWNYGASDIWGQGTMVTVSS
VL: EIVMTQSPATLSVSPGERATLSCRTSQSVSSNLAWYQQKPGQAPRLLIYGASTRATGIPARFSGSGSGTEFTLTISSLQSEDFAVYYCQQYNNWPLTFGGGTKVEIKR
notes: Full-length deduced chains
binds: all assays above

B3: 2-177-1 (antibody, V domains shown)
VH: EVQLLESGGGLIQPGGSLRLSCAASGFTFSSFAMSWVRQAPGKGLEWVSTISGSGGSTYYADFVKGRFTISRDNSKNTLYLQMNSLRAEDTAVYYCAKDGRYNWNYGAFDIWGQGTMVTVSS
VL: EIVMTQSPATLSVSPGERATLSCRASQSVRSNLAWFQQKPGQAPRLLIYGASTRATGIPARFSGSGSGTEFTLTISSLQSEDFAVYYCQQYNNWPLTFGGGTKVEIKR
notes: Full-length deduced chains
binds: all assays above

Source: patent US20060263354A1 (Amgen, published 2006)
